In this data set the test system is tet operator sequence. The data set is described as follows: β-galactosidase activity of a tetracycline-regulated promoter in transformed E. coli with revTetR, in the presence and absence of anhydrotetracycline (atc). It is filed as cell-based, Escherichia coli. To be noted: for β-Galactosidase Activity, Cultured Without ATC: RevTetR isolate cultured in the absence of anhydrotetracycline (ATC); for β-Galactosidase Activity, Cultured With ATC: RevTetR isolate cultured in the presence of anhydrotetracycline (ATC). As to the method: The relative activity of revTetR repressors was determined at 28° C. and 37° C. for each clone by measuring β-galactosidase activity of a tetracycline-regulated promoter in transformed Escherichia coli in the presence and absence of the tetracycline analog, anhydrotetracycline (atc). The relative β-galactosidase activity was measured in standard Miller units and is presented as the percent of maximal expression as measured in the absence of Tet repressor. […] With respect to each mutant, as well as the wild-type controls, FIG. 2 provides two horizontal bars; the upper horizontal bar represents the level of β-galactosidase activity in the absence of anhydrotetracycline (−atc) while the lower horizontal bar represents the level of β-galactosidase activity in the presence of anhydrotetracycline (+atc).
The pool of mutated Tet repressors was cloned into plasmid pWH1411 (Baumeister et al., 1992, Proteins: Struct. Funct. Genet. 14: 168-77), which carries a TetR(B) gene, to provide a TetR(BD) chimera that included, as the amino-terminal portion, amino acid residues 1 to 50 of the TetR(B) gene and, as the carboxyl-terminal portion, amino acid residues 51 to 208 of the TetR(D) gene. The resulting plasmid pool was screened in a genetic assay which positively selects for a functional interaction between a Tet repressor and its cognate operator using E. coli strain WH207(λWH25) (the construction of this strain is described in detail in Wissmann et al., (1991) Genetics 128: 225-32). In this E. coli strain, tet operators direct the expression of divergently arranged β-galactosidase (lacZ) and Lac repressor (lacI) genes and the lac regulatory region directs the expression of a galactokinase (galK) gene on plasmid pWH414. Binding of Tet repressors to tet operators turns off transcription of the lacI and lacZ genes. The absence of Lac repressor allows for expression of the galK gene, which enables the E. coli strain to use galactose as a sole carbon source, which serves as one marker. The lacZ^− phenotype serves as a second marker. Thus, bacteria containing Tet repressors which bind to tet operators, have a Gal^+, lacZ^− phenotype. Bacteria containing wild-type Tet repressors have a Gal^+, lacZ^− phenotype in the absence of tetracycline. Modified “reverse” Tet repressors (revTetR) were selected based upon a Gal^+, lacZ^− phenotype in the presence of tetracycline.
The ability of each revTetR clone to bind to its cognate tet operator sequence and regulate transcription in a prokaryotic organism, Escherichia coli, in the presence and absence of a tetracycline analog (anhydrotetracycline, atc) was determined (Table 3, FIG. 2). The relative ratios of non-repressed to repressed levels of transcription for the 15 clones range from about 1.4-fold to about 50-fold at 28° C. and from about 1.3-fold to 40-fold at 37° C. For example, clone 4b comprising an amino acid substitution of glutamic acid for glycine at position 96 (e.g., SEQ ID NO. 24) repressed transcription 19-fold at 37° C. but to a less extent at 28° C. (5.7-fold, Table 3). Furthermore, clones 14, 5a and 7 comprising the arginine for glycine substitution at position 96 and further comprising a substitution or substitutions of serine for threonine at position 103 and valine for glutamic acid at position 114; leucine for proline at position 159; or glutamine to histidine at position 188, respectively, have pronouncedly different activities.
wherein each underlined base was present in approximately 85% of the oligonucleotides, while the remaining approximately 15% of the oligonucleotides contained one of the other three, non-wild type bases at that position. Similar mutagenic, partially randomized oligonucleotides were prepared for mutagenesis of the coding regions for amino acids 14-25 and 93-102. It was predicted that, according to a binomial distribution, each oligonucleotide would contain three to four mutations. […]

B1: TetRrevAD3/9: revTetR(BD) E15Q L17L L55M I59R (protein)
chain: MSRLDKSKVINSALQLLNEVGIEGLTTRKLAQKLGVEQPTLYWHVKNKRALLDAMAVERLARHHDYSLPAAGESWQSFLRNNAMSFRRALLRYRDGAKVHLGTRPDEKQYDTVETQLRFMTENGFSLRDGLYAISAVSHFTLGAVLEQQEHTAALTDRPAAPDENLPPLLREALQIMDSDDGEQAFLHGLESLIRGFEVQLTALLQIV
modifications: Modified tetracycline repressor
notes: revTetR(BD) E15Q L17L L55M I59R
As to B1, the “β-Galactosidase Activity, Cultured Without ATC” value is listed as 60.2932 and the “β-Galactosidase Activity, Cultured With ATC” value was 4.2427.

B2: TetRrevAF3/6: revTetR(BD) E23K D95H L101H (protein)
chain: MSRLDKSKVINSALELLNEVGIKGLTTRKLAQKLGVEQPTLYWHVKNKRALLDALAVEILARHHDYSLPAAGESWQSFLRNNAMSFRRALLRYRHGAKVHHGTRPDEKQYDTVETQLRFMTENGFSLRDGLYAISAVSHFTLGAVLEQQEHTAALTDRPAAPDENLPPLLREALQIMDSDDGEQAFLHGLESLIRGFEVQLTALLQIV
modifications: Modified tetracycline repressor
notes: revTetR(BD) E23K D95H L101H
B2: the “β-Galactosidase Activity, Cultured Without ATC” value was 77.2272 and the “β-Galactosidase Activity, Cultured With ATC” value was found to be 1.0546.

B3: TetRrevAtc4-13: revTetR(BD) E58N I59T L60F H63Y (protein)
chain: MSRLDKSKVINSALELLNEVGIEGLTTRKLAQKLGVEQPTLYWHVKNKRALLDALAVNTFARYHDYSLPAAGESWQSFLRNNAMSFRRALLRYRDGAKVHLGTRPDEKQYDTVETQLRFMTENGFSLRDGLYAISAVSHFTLGAVLEQQEHTAALTDRPAAPDENLPPLLREALQIMDSDDGEQAFLHGLESLIRGFEVQLTALLQIV
modifications: Modified tetracycline repressor
notes: revTetR(BD) E58N I59T L60F H63Y
Consider B3, for which the “β-Galactosidase Activity, Cultured Without ATC” value was found to be 98.8175 and the “β-Galactosidase Activity, Cultured With ATC” value amounted to 8.1397.

B4: TetRrevAD3/10: revTetR(BD) N18Y G24G L51L D53Y A54V (protein)
chain: MSRLDKSKVINSALELLYEVGIEGLTTRKLAQKLGVEQPTLYWHVKNKRALLYVLAVEILARHHDYSLPAAGESWQSFLRNNAMSFRRALLRYRDGAKVHLGTRPDEKQYDTVETQLRFMTENGFSLRDGLYAISAVSHFTLGAVLEQQEHTAALTDRPAAPDENLPPLLREALQIMDSDDGEQAFLHGLESLIRGFEVQLTALLQIV
modifications: Modified tetracycline repressor
notes: revTetR(BD) N18Y G24G L51L D53Y A54V
B4: the “β-Galactosidase Activity, Cultured Without ATC” value stood at 89.1669 and the “β-Galactosidase Activity, Cultured With ATC” value came to 3.5004.

B5: TetRrevAF4/9: revTetR(BD) L16R E19D E23D D95G V99A G102G (protein)
chain: MSRLDKSKVINSALERLNDVGIDGLTTRKLAQKLGVEQPTLYWHVKNKRALLDALAVEILARHHDYSLPAAGESWQSFLRNNAMSFRRALLRYRGGAKAHLGTRPDEKQYDTVETQLRFMTENGFSLRDGLYAISAVSHFTLGAVLEQQEHTAALTDRPAAPDENLPPLLREALQIMDSDDGEQAFLHGLESLIRGFEVQLTALLQIV
modifications: Modified tetracycline repressor
notes: revTetR(BD) L16R E19D E23D D95G V99A G102G
With B5, the “β-Galactosidase Activity, Cultured Without ATC” value came out at 110.616 and the “β-Galactosidase Activity, Cultured With ATC” value stood at 1.3761.

B6: TetRrevAF3/8: revTetR(BD) E15V L16L N18H E19D V20D R94P D95H H100N (protein)
chain: MSRLDKSKVINSALVLLHDDGIEGLTTRKLAQKLGVEQPTLYWHVKNKRALLDALAVEILARHHDYSLPAAGESWQSFLRNNAMSFRRALLRYPHGAKVNLGTRPDEKQYDTVETQLRFMTENGFSLRDGLYAISAVSHFTLGAVLEQQEHTAALTDRPAAPDENLPPLLREALQIMDSDDGEQAFLHGLESLIRGFEVQLTALLQIV
modifications: Modified tetracycline repressor
notes: revTetR(BD) E15V L16L N18H E19D V20D R94P D95H H100N
Consider B6, for which the “β-Galactosidase Activity, Cultured Without ATC” value amounted to 95.5476 and the “β-Galactosidase Activity, Cultured With ATC” value was found to be 2.7257.

B7: TetRrevAF4/6: revTetR(BD) E15D L17I N18T E23G A54V D95A (protein)
chain: MSRLDKSKVINSALDLITEVGIGGLTTRKLAQKLGVEQPTLYWHVKNKRALLDVLAVEILARHHDYSLPAAGESWQSFLRNNAMSFRRALLRYRAGAKVHLGTRPDEKQYDTVETQLRFMTENGFSLRDGLYAISAVSHFTLGAVLEQQEHTAALTDRPAAPDENLPPLLREALQIMDSDDGEQAFLHGLESLIRGFEVQLTALLQIV
modifications: Modified tetracycline repressor
notes: revTetR(BD) E15D L17I N18T E23G A54V D95A
As to B7, the “β-Galactosidase Activity, Cultured Without ATC” value is reported as 100.702 and the “β-Galactosidase Activity, Cultured With ATC” value turned out to be 3.7257.

B8: TetRrevAD2/1: revTetR(BD) G21G L51L D53Y L55L A56P A61E (protein)
chain: MSRLDKSKVINSALELLNGVGIEGLTTRKLAQKLGVEQPTLYWHVKNKRALLYALPVEILERHHDYSLPAAGESWQSFLRNNAMSFRRALLRYRDGAKVHLGTRPDEKQYDTVETQLRFMTENGFSLRDGLYAISAVSHFTLGAVLEQQEHTAALTDRPAAPDENLPPLLREALQIMDSDDGEQAFLHGLESLIRGFEVQLTALLQIV
modifications: Modified tetracycline repressor
notes: revTetR(BD) G21G L51L D53Y L55L A56P A61E
Take B8: the “β-Galactosidase Activity, Cultured Without ATC” value is 34.2242 and the “β-Galactosidase Activity, Cultured With ATC” value was 1.17.

B9: TetRrevAD2/5: revTetR(BD) L17F L55L L60F R62V (protein)
chain: MSRLDKSKVINSALELFNEVGIEGLTTRKLAQKLGVEQPTLYWHVKNKRALLDALAVEIFAVHHDYSLPAAGESWQSFLRNNAMSFRRALLRYRDGAKVHLGTRPDEKQYDTVETQLRFMTENGFSLRDGLYAISAVSHFTLGAVLEQQEHTAALTDRPAAPDENLPPLLREALQIMDSDDGEQAFLHGLESLIRGFEVQLTALLQIV
modifications: Modified tetracycline repressor
notes: revTetR(BD) L17F L55L L60F R62V
B9: the “β-Galactosidase Activity, Cultured Without ATC” value came to 50.466 and the “β-Galactosidase Activity, Cultured With ATC” value is reported as 1.4141.

B10: TetRrevAF4/5: revTetR(BD) E15G L16L D95A V99G (protein)
chain: MSRLDKSKVINSALGLLNEVGIEGLTTRKLAQKLGVEQPTLYWHVKNKRALLDALAVEILARHHDYSLPAAGESWQSFLRNNAMSFRRALLRYRAGAKGHLGTRPDEKQYDTVETQLRFMTENGFSLRDGLYAISAVSHFTLGAVLEQQEHTAALTDRPAAPDENLPPLLREALQIMDSDDGEQAFLHGLESLIRGFEVQLTALLQIV
modifications: Modified tetracycline repressor
notes: revTetR(BD) E15G L16L D95A V99G
B10: the “β-Galactosidase Activity, Cultured Without ATC” value came out at 105.33 and the “β-Galactosidase Activity, Cultured With ATC” value was determined as 0.9927.

B11: TetRrevAD2/8: revTetR(BD) V20G D53N A54A A56G V57L I59F L60L R62R (protein)
chain: MSRLDKSKVINSALELLNEGGIEGLTTRKLAQKLGVEQPTLYWHVKNKRALLNALGLEFFARHHDYSLPAAGESWQSFLRNNAMSFRRALLRYRDGAKVHLGTRPDEKQYDTVETQLRFMTENGFSLRDGLYAISAVSHFTLGAVLEQQEHTAALTDRPAAPDENLPPLLREALQIMDSDDGEQAFLHGLESLIRGFEVQLTALLQIV
modifications: Modified tetracycline repressor
notes: revTetR(BD) V20G D53N A54A A56G V57L I59F L60L R62R
Turning to B11, the “β-Galactosidase Activity, Cultured Without ATC” value is 73.8584 and the “β-Galactosidase Activity, Cultured With ATC” value is given as 1.8468.

B12: TetRrevAF4/4: revTetR(BD) G24A R94P D95E G102D (protein)
chain: MSRLDKSKVINSALELLNEVGIEALTTRKLAQKLGVEQPTLYWHVKNKRALLDALAVEILARHHDYSLPAAGESWQSFLRNNAMSFRRALLRYPEGAKVHLDTRPDEKQYDTVETQLRFMTENGFSLRDGLYAISAVSHFTLGAVLEQQEHTAALTDRPAAPDENLPPLLREALQIMDSDDGEQAFLHGLESLIRGFEVQLTALLQIV
modifications: Modified tetracycline repressor
notes: revTetR(BD) G24A R94P D95E G102D
For B12, the “β-Galactosidase Activity, Cultured Without ATC” value stood at 94.4528 and the “β-Galactosidase Activity, Cultured With ATC” value was determined as 3.8273.
